In patent US20110190386A1:

Legend:
[1] = biological target: CFP from CFP-empty plasmid (pECFP); experiment: FRET by acceptor photobleaching; negative control, cotransfection of empty CFP and YFP plasmids in MDA-MB231 cells
[2] = biological target: CFP-tagged CD44 (human full length CD44s cDNA fused in frame into pECFP, expressed in MDA-MB231 cells) (human) (UniProt P16070); experiment: FRET by acceptor photobleaching, CFP-CD44/YFP-OPN in MDA-MB231 cells, in the presence of mutated OPN-R3 RNA aptamer (control)
[3] = biological target: CFP-tagged CD44 (human full length CD44s cDNA fused in frame into pECFP, expressed in MDA-MB231 cells) (human) (UniProt P16070); experiment: FRET by acceptor photobleaching, CFP-CD44/YFP-OPN in MDA-MB231 cells, in the presence of blocking antibody to αvβ3 integrin
[4] = biological target: CFP-tagged CD44 (human full length CD44s cDNA fused in frame into pECFP, expressed in MDA-MB231 cells) (human) (UniProt P16070); experiment: FRET by acceptor photobleaching, confocal microscopy, MDA-MB231 cells coexpressing CFP-CD44 and YFP-OPN

FRET efficiency [1]	FRET efficiency [2]	FRET efficiency [3]	FRET efficiency [4]	Substance
0.23%				YFP from YFP-empty plasmid (pEYFP)
	23.1%	19.6%	24.2%	YFP-tagged OPN (human OPN cDNA fused in frame into pEYFP, expressed in MDA-MB231 cells) (from UniProt P10451 17-314) (ligand)
